Data: US20140017790A1, “CONTROL AGENT FOR CONTROLLING UNDIFFERENTIATED STATE AND USE THEREOF” (RIKEN, priority 2011, published 2014)

Columns and labels:
Type in all cases: cell-based
mouse iPS cells = experiment: quantitative RT-PCR of undifferentiated marker genes, recombinant CCL2 added to mouse iPS cells under feeder free conditions
Description: A PrimeScript RT-PCR Kit (trade name, TAKARA BIO INC.), an ABI 7500 Fast real time PCR system (trade name, Applied BioSystems), and a SYBR (registered trademark) Premix Ex Taq (trade name, TAKARA BIO INC.) were used in accordance with their protocols. PCR was carried out by conducting 40 cycles of treatment with a treatment at 94° C. for 5 second and at 62.5° C. for 20 seconds as 1 cycle. The expression level of each gene was calculated by normalizing the relative amount of mRNA in the gene to Gapdh mRNA according to the 2^−ΔΔ^CT method (Thomse R, Solvsten C A, Linnet T E, et al., Analysis of qPCR data by converting exponentially related Ct values into linearly related XO values. J Bioinform Comput Biol 2010: 8: 885-900.).
The medium of a negative control used was the above-described DMEM containing the above-described LIF. […]
Furthermore, after the culture of the mouse iPS cells, the expression level of the Tbx3 gene was determined in the same manner as in the item (1) of Example 1. Then, the fold change in expression level relative to the negative control was calculated. […]
The mouse iPS cells cultured under the feeder free conditions were cultured in the medium of the example and the medium of the comparative example, respectively. […] 24 hours after the culture, the expression levels of the undifferentiated marker genes were determined in the same manner as in the item (1) of Example 1. […]

human iPS cells [1] = experiment: qRT-PCR of undifferentiated marker genes, feeder free versus feeder culture of human iPS cells; conditions: feeder free with CCL2 and LIF, no bFGF, relative to feeder conditions with bFGF
Description: Specifically, human iPS cells were cultured under feeder conditions where bFGF was added and the CCL2 was not added, and under feeder free conditions where bFGF was not added and the CCL2 and LIF were added. Total RNAs then were extracted, and the expressions of undifferentiated marker genes were examined by the qRT-PCR. The culture under the feeder conditions was carried out in the same manner as in Example 8. The culture under the feeder free conditions was carried out in the same manner as in Example 12. Then, assuming that the expression level under the feeder condition was 1, the relative value with respect to this value was calculated as the fold change in expression level under the feeder free conditions.
FIG. 21 is a graph showing the fold changes in the expression of the undifferentiated marker genes in the human iPS cells. The vertical axis indicates the fold change (-fold), and the horizontal axis indicates the examined undifferentiated marker genes. The open bars show the results obtained under the feeder free conditions, and the solid bars show the results obtained under the feeder conditions.

human iPS cells [2] = experiment: culture of human iPS cells in feeder free media, EB plating, cell adhesion
Text: As undifferentiated cells, the same human iPS cells as used in Example 7 were used. As CCL2, the mouse recombinant CCL2 used in the item (1) of Example 2 was used. As feeder free media, the following three kinds of media were provided by adding or not adding the CCL2, LIF and bFGF to the medium for human stem cells used in Example 8. Specifically, the media used were as follows: the medium with CCL2 not added (−)/LIF not added (−)/bFGF added (+); the medium with CCL2 added (+)/LIF not added (−)/bFGF not added (−); and the medium with CCL2 added (+)/LIF added (+)/bFGF not added (−). In each medium, the concentration of the LIF was set to 50 units/ml, the concentration of the CCL2 was set to 500 ng/ml, and the concentration of the bFGF was set to 5 ng/ml. Then, the human iPS cells were cultured for 6 days using each medium, and EBs were produced. Thereafter, the thus-produced EBs were seeded in gelatin coated dishes so that each gelatin coated dish contained one EB, and cultured for 5 days in a medium (DMEM) containing 20% FBS.
The photographs in FIG. 20 show the cell morphologies of the EBs on the 5th day from the plating.

B1: CCL2: mouse recombinant CCL2 (MCP-1, #479-JE-010, R&D Systems); in Examples 1, 3, 4(1), 5 mouse CCL2 (SEQ ID NO: 3) overexpressed from Ccl2 expression vector (protein, listed as Mus musculus)
chain: MQVPVMLLGLLFTVAGWSIHVLAQPDAVNAPLTCCYSFTSKMIPMSRLESYKRITSSRCPKEAVVFVTKLKREVCADPKKEWVQTYIKNLDRNQMRSEPTTLFKTASALRSSAPLNVKLTRKSEANASTTFSTTTSSTSVGVTSVTVN
expression level of the Tbx3 gene (mouse iPS cells; recombinant CCL2 500 ng/ml added to PI3K inhibitor 5 ng/ml + LIF 25 units/ml): further increase | expression of each undifferentiated marker gene (mouse iPS cells; recombinant CCL2 2500 ng/ml, no LIF, feeder free, 24 hours, relative to LIF 1000 units/ml): increased markedly | expressions of the undifferentiated marker genes, fold change (human iPS cells [1]): comparable | cell adhesion (human iPS cells [2]; CCL2 500 ng/ml + LIF 50 units/ml, bFGF not added): observed | colony growth (human iPS cells [2]; CCL2 500 ng/ml + LIF 50 units/ml, bFGF not added, culture for 5 days): observed | cell adhesion (human iPS cells [2]; LIF not added, CCL2 500 ng/ml alone or bFGF 5 ng/ml alone): observed
